In patent publication US20200316217A1:

Legend:
Assay in all cases: cell-based or functional assay
Human PTHR1 WT (human) = Human PTHR1 WT (human) (UniProt Q03431)
PTHR1GFP (human) = PTHR1GFP (human) (UniProt Q03431)
PTHR1YFPΔECD (human) = molecular target: PTHR1YFPΔECD (human)
PTHR16E (human) = PTHR16E (human) (UniProt Q03431)
rat PTHR1 (rat) = rat PTHR1 (rat) (UniProt P25961)
human PTHR2 (human) = human PTHR2 (human) (UniProt P49190)
Sequence of human PTHR2 (human) (P49190 25-550): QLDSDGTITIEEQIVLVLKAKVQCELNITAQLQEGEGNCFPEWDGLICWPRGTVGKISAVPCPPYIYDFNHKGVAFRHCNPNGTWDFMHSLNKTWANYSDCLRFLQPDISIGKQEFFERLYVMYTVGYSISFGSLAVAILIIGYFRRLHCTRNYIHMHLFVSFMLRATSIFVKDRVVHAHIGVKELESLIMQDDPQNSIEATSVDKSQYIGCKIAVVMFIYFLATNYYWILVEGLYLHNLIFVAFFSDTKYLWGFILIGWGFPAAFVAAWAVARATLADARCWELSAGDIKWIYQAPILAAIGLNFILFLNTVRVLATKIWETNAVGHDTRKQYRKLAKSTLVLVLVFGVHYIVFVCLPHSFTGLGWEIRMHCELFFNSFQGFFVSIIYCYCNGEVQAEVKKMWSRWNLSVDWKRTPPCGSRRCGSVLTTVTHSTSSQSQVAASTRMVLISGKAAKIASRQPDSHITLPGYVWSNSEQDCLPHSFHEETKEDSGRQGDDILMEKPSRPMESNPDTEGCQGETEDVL

Sequence of rat PTHR1 (rat) (P25961 27-591): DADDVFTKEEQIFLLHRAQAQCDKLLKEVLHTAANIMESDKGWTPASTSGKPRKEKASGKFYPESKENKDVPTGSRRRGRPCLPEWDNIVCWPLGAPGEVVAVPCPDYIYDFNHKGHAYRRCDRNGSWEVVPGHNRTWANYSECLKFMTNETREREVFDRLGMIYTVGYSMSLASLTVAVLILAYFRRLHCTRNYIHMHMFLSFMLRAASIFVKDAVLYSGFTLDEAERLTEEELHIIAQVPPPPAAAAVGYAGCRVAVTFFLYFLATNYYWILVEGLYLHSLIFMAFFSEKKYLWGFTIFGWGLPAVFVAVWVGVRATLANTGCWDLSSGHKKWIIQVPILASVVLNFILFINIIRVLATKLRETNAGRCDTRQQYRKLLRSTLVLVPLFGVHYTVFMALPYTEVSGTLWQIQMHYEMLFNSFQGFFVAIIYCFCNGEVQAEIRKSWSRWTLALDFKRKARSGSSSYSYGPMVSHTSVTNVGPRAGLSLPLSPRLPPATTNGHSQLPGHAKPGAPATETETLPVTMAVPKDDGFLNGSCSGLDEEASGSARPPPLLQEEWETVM

| Substance | Stimulation of receptor (cAMP), EC50 (Human PTHR1 WT (human)) | cAMP induction EC50 (Human PTHR1 WT (human)) | cAMP induction EC50 (PTHR1GFP (human)) | Stimulation of receptor (cAMP), EC50 (PTHR1YFPΔECD (human)) | cAMP induction EC50 (PTHR1YFPΔECD (human)) | Stimulation of receptor (cAMP), EC50 (PTHR16E (human)) | cAMP induction EC50 (PTHR16E (human)) | cAMP induction Max (normalized) (Human PTHR1 WT (human)) | cAMP induction Max (normalized) (PTHR1GFP (human)) | cAMP induction EC50 (rat PTHR1 (rat)) | cAMP induction Max (normalized) (PTHR1YFPΔECD (human)) | cAMP induction Max (normalized) (PTHR16E (human)) | also measured |
| --- | --- | --- | --- | --- | --- | --- | --- | --- | --- | --- | --- | --- | --- |
| PTH(1-9) (peptide) | > 10000 nM | > 10000 nM | > 10000 nM | > 10000 nM | > 10000 nM | > 10000 nM | > 10000 nM | – | – | – | – | – | – |
| PTH(1-10) (peptide) | 3120 nM | 3120 nM | 2550 nM | 3840 nM | 3840 nM | 5080 nM | 5080 nM | 1.03 normalized | 1.16 normalized | 2470 nM | 1.12 normalized | 1.09 normalized | cAMP induction Max (normalized) (rat PTHR1 (rat)): 1.09 normalized |
| PTH(1-14) (peptide) | 4.3 nM | 4.3 nM | 2.3 nM | 1.1 nM | 1.1 nM | 3.4 nM | 3.4 nM | 1.01 normalized | 1.09 normalized | – | 0.96 normalized | 1.06 normalized | cAMP induction EC50 (human PTHR2 (human)): 924 nM; cAMP induction Max (normalized) (human PTHR2 (human)): 1.14 normalized |
| VHHGFP-PTH(1-14) | > 100 nM | > 100 nM | 1.8 nM | 0.58 nM | 0.58 nM | > 100 nM | > 100 nM | – | 1.21 normalized | – | 1.16 normalized | – | – |

The next lines start with results.

| Stimulation of receptor (cAMP), EC50 (Human PTHR1 WT (human)) | cAMP induction EC50 (Human PTHR1 WT (human)) | cAMP induction EC50 (PTHR1GFP (human)) | Stimulation of receptor (cAMP), EC50 (PTHR1YFPΔECD (human)) | cAMP induction EC50 (PTHR1YFPΔECD (human)) | Stimulation of receptor (cAMP), EC50 (PTHR16E (human)) | cAMP induction EC50 (PTHR16E (human)) | cAMP induction Max (normalized) (Human PTHR1 WT (human)) | cAMP induction Max (normalized) (PTHR1GFP (human)) | cAMP induction EC50 (rat PTHR1 (rat)) | cAMP induction Max (normalized) (PTHR1YFPΔECD (human)) | cAMP induction Max (normalized) (PTHR16E (human)) | Substance | also measured |
| --- | --- | --- | --- | --- | --- | --- | --- | --- | --- | --- | --- | --- | --- |
| 516 nM | 516 nM | 79 nM | 246 nM | 246 nM | 94 nM | 94 nM | 1.01 normalized | 1.1 normalized | 120 nM | 1.02 normalized | 1.09 normalized | PTH(1-11) (peptide) | cAMP induction EC50 (human PTHR2 (human)): > 100000 nM; cAMP induction Max (normalized) (human PTHR2 (human)): 0.36 normalized; cAMP induction, percent at 100 uM (human PTHR2 (human)): 20 % at 100 µM; half maximal stimulation (cAMP-sensitive luciferase) (PTHR1GFP (human)): 200 nM; cAMP induction Max (normalized) (rat PTHR1 (rat)): 1.02 normalized |
| – | – | > 100 nM | – | – | – | – | – | – | – | 0.38 normalized | – | VHHGFP-PTH(1-9) | Stimulation of receptor (cAMP), percent activation (% activation at 100 nM) (PTHR1YFPΔECD (human)): 40; cAMP induction, percent activation (% activation at 100 nM) (PTHR1YFPΔECD (human)): 40 |
| – | – | > 100 nM | 0.46 nM | 0.46 nM | – | – | – | – | – | 1.06 normalized | – | VHHGFP-PTH(1-10) | potency, fold against PTH(1-10) (PTHR1YFPΔECD (human)): 7800 fold |
| > 100 nM | > 100 nM | 8 nM | 0.14 nM | 0.14 nM | > 100 nM | > 100 nM | – | 1.1 normalized | > 100 nM | 1.19 normalized | – | VHHGFP-PTH(1-11) | activation of PTHR1 (Human PTHR1 WT (human)): > 100 nM; activity, fold enhancement against PTH(1-11) (PTHR1YFPΔECD (human)): > 20000 fold |
